{"source": "patent US12576154B2", "about": "“Conjugates of PSMA-binding moieties with cytotoxic agents” (PHILOCHEM AG, priority 2022, dated 2026)", "key": {"HT1080.hPSMA tumor [1]": {"test_system": "HT1080.hPSMA tumor", "assay": "MMAE release from conjugates in HT1080.hPSMA tumor model (comparison and timepoint study)", "type": "in vivo, mice", "conditions": "HT1080.hPSMA tumor, n=3", "experimental": "(§1) HT1080.hPSMA tumor cells were grown to 90% confluence and detached with Trypsin-EDTA 0.05%. Cells were resuspended in Hank's Balanced Salt Solution (HBSS) at a density of 5×10^7 cells/mL. 100 μL of HT1080.hPSMA cells (5×10^6 cells) were injected subcutaneously in the right flank of female athymic Balb/c AnNRj-Foxn1 mice (6 to 8 weeks of age). Tumors were grown until ˜250 mm^3 volume (average).\nComparison study: 0.1 mL of 50 μM solutions (2% DMSO, PBS, 250 nmol/kg) of the four conjugates (1 to 4) were injected intravenously. The animals were sacrificed in groups of 3 after 24 h, and blood and the following organs were extracted: HT1080.hPSMA tumor, heart, lungs, liver, kidney, spleen, stomach. The blood fraction was centrifuged, and the plasma (supernatant) was extracted. The organs were stored at −80° C. before being used for further analysis.\n(§2) Timepoint study: 0.1 mL of a 50 μM solution (2% DMSO, PBS, 250 nmol/kg) of conjugate 1 was injected intravenously into the tail vein of the mice. The animals were sacrificed in groups of 3 after 6 h, 24 h, 48 h, and 72 h, and blood and the following organs were extracted: HT1080.hPSMA tumor, heart, lungs, liver, kidney, spleen, stomach. The blood fraction was centrifuged, and the plasma (supernatant) was extracted. The organs were stored at −80° C. before being used for further analysis.\nFrozen plasma (50 μL) and mouse tissues (˜50 mg) were thawed, and 500 μL of PBS was added. Samples were kept on ice, and 50 μL solution of internal standard (d8-MMAE, 50 nM) was added. Samples were then homogenized at 4° C. with a tissue lyser for 2 minutes at 30 Hz for 4 cycles. After homogenization, samples were centrifuged (21'000 g, 10 min). Subsequently, 100 μL of supernatants were collected and added to 900 μL of acetonitrile (ACN) to induce protein precipitation. After centrifugation (21'000 g, 10 min), 800 μL of supernatants were collected and dried at room temperature with a vacuum centrifuge. Pellets were then resuspended in 20 μL of an aqueous solution containing 3% ACN and 0.1% of HCOOH, and 5 μL were injected into the UHPLC-MS system. Chromatographic separation was carried out on a Hypersil Gold C18 column (100 mm×2.1 mm, 1.9 μm particle size, 175 Å pore size) column temperature was set at 50° C. and a flow rate of 700 μL/min with a gradient program from 95% A (water+0.1% HCOOH), 5% B (ACN+0.1% HCOOH) to 35% of A in 2.5 minutes, from 35% A to 5% A in 0.4 minutes and 5% A was kept for 1.3 minutes before reconditioning at 95% A. The LC system was coupled to a Q-Exactive mass spectrometer via an Ion Max HESI Source. Ionization was carried out with a spray voltage of 3.5 kV; Sheath gas 40 units; Aux gas 10 units; capillary temperature of 380° C.; Aux gas temperature 450° C.; S-lens RF level 60. The mass spectrometer was operating in targeted Single Ion Monitoring mode (t-SIM) following the molecular ion 718.5113 m/z. The detector was working in positive ionization mode with the following parameters: resolution 70'000 (FWHM at 200 m/z); AGC target of 5×10^4; maximum injection time of 200 ms; isolation window 14 m/z; isolation offset 5 m/z. Peak areas of analytes and internal standards were integrated, and corresponding ratios were calculated. The ratios were then transformed into pmol/g of wet tissue using single-concentration external calibration points and corrected by the total weight of the sample analysed. The percentage of injected dose per gram (% ID/g) was finally calculated by normalizing the value based on the total dose injected into the mouse. Data analysis was performed with Skyline v22.2.0.351."}, "HT1080.hPSMA xenografts": {"test_system": "HT1080.hPSMA xenografts", "assay": "Comparative therapy experiment in mice bearing HT1080.hPSMA xenografts (tumor volume)", "type": "in vivo", "conditions": "250 nmol/kg i.v. on days 8, 10, 12 after tumor implantation, n=5", "experimental": "as §1, with “a” for “a density of”, “cells/mL density.” for “cells/mL.”, “volumes of […].” for “˜250 mm^3 volume (average).”\n(§3) Tumor-bearing mice were randomized into groups of 5 and 0.1 mL of 50 μM solutions (2% DMSO, PBS, 250 nmol/kg) of the four conjugates (1 to 4), or saline solution (0.9% NaCl) was injected intravenously three times with 1-day break in between (days 8, 10, and 12 after tumor implantation)."}, "[2]": {"assay": "Body weight change during comparative therapy experiment (Example 4)", "type": "in vivo, mice", "conditions": "250 nmol/kg i.v. on days 8, 10, 12, n=5", "experimental": "as §1, with “a” for “a density of”, “cells/mL density.” for “cells/mL.”, “volumes of […].” for “˜250 mm^3 volume (average).”\nas §3"}, "HT1080.hPSMA tumor [3]": {"test_system": "HT1080.hPSMA tumor", "assay": "MMAE release at different time points in HT1080.hPSMA tumor model (Conjugate 7 vs Conjugate 1)", "type": "in vivo, mice", "experimental": "as §1, with “a” for “a density of”, “cells/mL density.” for “cells/mL.”\nas §2, with “0.1” for “Timepoint study: 0.1”, “of Conjugate 7” for “of conjugate 1”, “sacrificed” for “sacrificed in groups of 3”, “h, or” for “h, and”, “72 h (n=3/group),” for “72 h,”\nFrozen plasma (50 μL) and mouse tissues (˜50 mg) were thawed, and 500 μL of PBS was added. Samples were kept on ice, and 50 μL solution of internal standard (d8-MMAE, 50 nM) was added. Samples were then homogenized at 4° C. with a tissue lyser for 2 minutes at 30 Hz for 4 cycles. After homogenization, samples were centrifuged (21'000 g, 10 min). Subsequently, 100 μL of supernatants were collected and added to 900 μL of acetonitrile (ACN) to induce protein precipitation. After centrifugation (21'000 g, 10 min), 800 μL of supernatants were collected and dried at room temperature with a vacuum centrifuge. Pellets were then resuspended in 20 μL of an aqueous solution containing 3% ACN and 0.1% of HCOOH, and 5 μL were injected into the UHPLC-MS system. […] Peak areas of analytes and internal standards were integrated, and corresponding ratios were calculated. The ratios were then transformed into pmol/g of wet tissue using single-concentration external calibration points and corrected by the total weight of the sample analysed. The percentage of injected dose per gram (% ID/g) was finally calculated by normalizing the value based on the total dose injected into the mouse. […]"}}, "data": [{"smiles": "CC[C@H](C)[C@@H]([C@@H](CC(=O)N1CCC[C@H]1[C@H](OC)[C@@H](C)C(=O)N[C@H](C)[C@@H](O)c1ccccc1)OC)N(C)C(=O)[C@@H](NC(=O)[C@H](C(C)C)N(C)C(=O)OCc1ccc(NC(=O)[C@@H]2CCCN2C(=O)CNC(=O)CCCCCN2C(=O)CC(SC[C@H](N)C(=O)NCCCCCC(=O)NC[C@H]3CC[C@H](C(=O)N[C@@H](Cc4ccc5ccccc5c4)C(=O)NCCCC[C@H](NC(=O)N[C@@H](CCC(=O)O)C(=O)O)C(=O)O)CC3)C2=O)cc1)C(C)C", "note": "(some centres unmarked) [Conjugate 1]", "values": [{"measurement": "Timepoint study of MMAE release", "setting": "HT1080.hPSMA tumor [1]; 6 h, 24 h, 48 h, 72 h after i.v. 250 nmol/kg", "value": "stable payload accumulation in the tumors over an extended time"}, {"measurement": "MMAE release in tumor", "setting": "HT1080.hPSMA tumor [1]; 24 hours after intravenous injection, 250 nmol/kg", "value": 4.5, "unit": "% ID/g"}, {"measurement": "Complete remissions", "setting": "HT1080.hPSMA xenografts", "value": "1/5"}, {"measurement": "Therapeutic efficacy (tumor volume change)", "setting": "HT1080.hPSMA xenografts", "value": "significant shrinkage of the tumors of all 5 mice"}, {"measurement": "Toxicity (body weight change %)", "setting": "[2]", "value": "lowest toxicity"}, {"measurement": "MMAE release at 6 h", "setting": "HT1080.hPSMA tumor [3]; 6 h after i.v. 250 nmol/kg, n=3", "value": 200, "unit": "pmol/g"}, {"measurement": "MMAE release at highest accumulation point (average)", "setting": "HT1080.hPSMA tumor [3]; 24 h after i.v. 250 nmol/kg, n=3", "value": "approx. 300 pmol/g"}, {"measurement": "Time of highest accumulation point of released MMAE", "setting": "HT1080.hPSMA tumor [3]; i.v. 250 nmol/kg, time points 6, 24, 48, 72 h", "value": 24, "unit": "h"}]}]}
